Measured values from US20230391872A1 (ANAPTYSBIO, published 2023).

Biological target: T1, cynomolgus monkey BTLA ECD-his (monomeric cynomolgus monkey BTLA-his) (cynomolgus monkey, UniProt A0A2K5W7M7 31-157)
T1 construct: extracellular domain; also called cynomolgus monkey BTLA extracellular domain
T1 sequence: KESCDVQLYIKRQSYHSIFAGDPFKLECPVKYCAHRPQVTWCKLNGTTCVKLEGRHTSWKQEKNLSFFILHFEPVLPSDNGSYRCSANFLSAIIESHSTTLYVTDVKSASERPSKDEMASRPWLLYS
Assay: SPR (Biacore T200), antibody captured on anti-human IgG chip, monomeric BTLA-his flowed at 60, 20, 6.7 and 2.2 nM, 1:1 binding model, 25 C [lower right panel (Cyno BTLA]
Procedure: Surface plasmon resonance (SPR) analyses were carried out using a Biacore T200 (GE Healthcare Life Sciences). Kinetic constants were determined using a 1:1 binding model in the Biacore T200 Evaluation Software to calculate on- and off-rates (kₐ and kd, respectively), and dissociation constants as a measure of overall affinity (KD). Anti-human IgG (GE Healthcare Life Sciences) was immobilized on a CMS chip using EDC-activated amine coupling chemistry (420 seconds contact at a flow rate of 10 μl/min). Antibodies (APE10585.04 6G3 IgG1 and APE10840.05 6G3 IgG4), each at 0.5 μg/m1) were captured in a 60 second contact with the flow cell using a flow rate of 10 μl/min. Monomeric human BTLA-his or cynomolgus monkey BTLA-his at 60 nM, 20 nM, 6.7 nM and 2.2 nM concentrations was flowed over captured antibody (480 seconds association, 1800 seconds dissociation). Runs were at 25° C. and used buffer containing 10 mM HEPES, pH 7.6, 150 mM NaCl, 3 mM EDTA, 0.05% polysorbate 20 (HBS-EP+, pH 7.6; Teknova) for the mobile phase and all dilutions. At the end of each cycle, bound antigen was removed by regeneration with two successive exposures (60 seconds and 90 seconds) to 3 M MgCl2 (30 μl/min). Sensorgrams and binding constants corresponding to the experiment are shown in FIG. 1 (human BTLA) and FIG. 1 (cynomolgus monkey BTLA). Antibody capture levels in resonance units (RU) are listed at the right side of each panel.

- Kd: 11.2 nM
- koff: 0.00393 s⁻¹
- kon: 351000 M⁻¹ s⁻¹
B1: 6G3 IgG4 anti-BTLA antibody (APE10840 / APE12839 / APE13308) (antibody, V domains shown)
VH: QVQLVQSGAEVKKPGSSVKVSCKASGYVFSTSWMNWVRQAPGQGLEWMGRIYPGDADTNYVGKFKGRVTITADKSTTTAYMELSSLRSEDTAVYFCAKSGTFNFGNYRWYFDVWGKGTTVTVSS
VL: AIQLTQSPSSLSASVGDRVTITCRVSENIYSHLAWYQQKPGKAPKLLIYAATNLALGVPSRFSGSGSGTDYTLTISSLQPEDFATYYCQLFWGPPLTFGGGTKVEIKR
notes: Humanized antibody from a mouse hybridoma, tested as human IgG4 (detected with anti-human kappa); Some assays used labelled lots (DyLight 650, AF647, biotin, DyL488); also called 6G3 antibody; APE10840.03
